Biological target: mouse CD40 (mouse) (UniProt P27512)
Assay: cell-based or functional assay

UniProt P27512, sequence (P27512 20-289): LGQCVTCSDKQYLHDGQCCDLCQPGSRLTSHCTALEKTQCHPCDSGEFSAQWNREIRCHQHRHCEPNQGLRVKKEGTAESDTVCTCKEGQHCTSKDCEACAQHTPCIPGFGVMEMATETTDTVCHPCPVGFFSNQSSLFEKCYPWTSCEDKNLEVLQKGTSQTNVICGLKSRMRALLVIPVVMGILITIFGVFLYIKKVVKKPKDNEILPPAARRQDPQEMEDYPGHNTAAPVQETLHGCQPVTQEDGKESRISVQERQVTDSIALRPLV

## anti-mouse CD40 mAb (HM40-3) (antibody)
  fold increase in frequency of cytoplasmic IL-10+ adult blood B cells, 48 h culture against 5 h L+PIM culture: 6 to 9 fold
  reduction of LPS-induced IL-10 secretion by spleen B cells, ELISA of culture supernatant: > 68%

From US9669057
